Data from PMC10787639 (Frontiers in Molecular Biosciences, 2023).

Experiments:
[1] = target: Chaetomium thermophilum PCNA (proliferating cell nuclear antigen) (Chaetomium thermophilum); assay: crystal structure; Ct PCNA (14 mg/mL) mixed with Ct PolD3 PIP peptide (8 mg/mL in dH2O); crystals in 0.1 M phosphate/citrate pH 4.2, 40% PEG 300; space group P1, one PCNA trimer in the asymmetric unit; 2.45 A; the peptide occupies a single PIP binding site, the others occluded by crystal packing
[2] = assay type: physicochemical; conditions: lyophilised peptide; resuspended in DMSO at 8 mg/mL (4.8 mM) instead
Source text: A 15mer Ct PolD3 PIP peptide spanning residues 437–451 (sequence: ^437GKGGQGSIMSWFAKK^451) and a 15mer Ct Fen1 peptide spanning residues 339–353 (^339GAQQARIEGFFKVIP^353) were commercially synthesised (GenScript, Piscataway, New Jersey, United States) and obtained in lyophilised form at final purities of 99.4% and 99.1%, respectively.

[3] = target: PolD4 (Homo sapiens) (UniProt Q9HCU8); assay: ITC; conditions: cited from earlier work
[4] = target: PolD3/p66 (Homo sapiens) (UniProt Q15054); assay: ITC; conditions: cited from earlier work
[5] = target: Chaetomium thermophilum PCNA (proliferating cell nuclear antigen) (Chaetomium thermophilum); assay: ITC; 420 uM Ct PolD3 peptide injected into 300 uL of 32.7 uM Ct PCNA; 25°C; 50 mM Tris-HCl, 150 mM NaCl, pH 8.0; duplicate; single site model (1 peptide: 1 PCNA protomer)

Chain of PCNA (P12004 whole entry): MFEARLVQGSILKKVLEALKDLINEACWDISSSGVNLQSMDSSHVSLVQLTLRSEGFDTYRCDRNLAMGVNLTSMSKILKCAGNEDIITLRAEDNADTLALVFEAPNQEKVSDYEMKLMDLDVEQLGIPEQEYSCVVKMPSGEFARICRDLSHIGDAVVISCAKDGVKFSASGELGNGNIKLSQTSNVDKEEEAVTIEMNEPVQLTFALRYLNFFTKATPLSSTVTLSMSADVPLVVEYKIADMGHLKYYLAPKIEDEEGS
Chain of UniProt Q9HCU8 (Q9HCU8 whole entry): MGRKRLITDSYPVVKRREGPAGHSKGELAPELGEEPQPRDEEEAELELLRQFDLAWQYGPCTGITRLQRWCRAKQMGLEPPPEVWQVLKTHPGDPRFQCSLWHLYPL
Chain of UniProt Q15054 (Q15054 2-466): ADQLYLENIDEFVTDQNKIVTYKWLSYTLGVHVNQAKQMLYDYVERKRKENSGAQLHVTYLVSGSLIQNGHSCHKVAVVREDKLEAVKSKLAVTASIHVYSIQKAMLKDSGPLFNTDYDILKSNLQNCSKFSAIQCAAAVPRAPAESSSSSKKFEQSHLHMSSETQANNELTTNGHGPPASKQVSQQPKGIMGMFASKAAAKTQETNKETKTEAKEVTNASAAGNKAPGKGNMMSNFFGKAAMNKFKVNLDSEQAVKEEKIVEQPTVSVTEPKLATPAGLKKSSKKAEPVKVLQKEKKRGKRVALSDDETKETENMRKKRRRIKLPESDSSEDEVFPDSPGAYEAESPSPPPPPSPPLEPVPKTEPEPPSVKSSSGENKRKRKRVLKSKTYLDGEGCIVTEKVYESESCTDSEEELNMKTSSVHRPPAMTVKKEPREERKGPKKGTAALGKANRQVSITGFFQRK

**Q.** With “Chaetomium thermophilum PCNA (proliferating cell nuclear antigen) (natural protein)” as the molecule, how does the stoichiometry N [1] read?
**A.** Its stoichiometry N is 3.

**Q.** Which “solubility in aqueous solution” value [2] does the source give for “GAQQARIEGFFKVIP [Ct Fen1 PIP peptide, 15mer Ct Fen1 peptide spanning residues 339–353, commercially synthesised (GenScript), purity 99.1%]” here?
**A.** The value was “insoluble in aqueous solution”.

**Q.** Which Kd [3] does the source give for PCNA (from UniProt P12004) here?
**A.** Its Kd is 38 µM.

**Q.** And the Kd [4]?
**A.** Its Kd is 16 µM.

**Q.** For GKGGQGSIMSWFAKK [Ct PolD3 PIP peptide (15mer, residues 437-451)], which Kd [5] is on record?
**A.** The Kd was 43.2 µM.

**Q.** What about the stoichiometry N (PIP peptide per PCNA protomer) [5] of the same molecule?
**A.** Its stoichiometry N (PIP peptide per PCNA protomer) is 1.
